Experimental data reported in patent US20240218030A1 (published 2024).

Biological target: human transferrin receptor-Fc tag standard (human, UniProt P02786 89-760)
Assay: ELISA

human transferrin receptor-Fc tag standard, sequence (P02786 89-760): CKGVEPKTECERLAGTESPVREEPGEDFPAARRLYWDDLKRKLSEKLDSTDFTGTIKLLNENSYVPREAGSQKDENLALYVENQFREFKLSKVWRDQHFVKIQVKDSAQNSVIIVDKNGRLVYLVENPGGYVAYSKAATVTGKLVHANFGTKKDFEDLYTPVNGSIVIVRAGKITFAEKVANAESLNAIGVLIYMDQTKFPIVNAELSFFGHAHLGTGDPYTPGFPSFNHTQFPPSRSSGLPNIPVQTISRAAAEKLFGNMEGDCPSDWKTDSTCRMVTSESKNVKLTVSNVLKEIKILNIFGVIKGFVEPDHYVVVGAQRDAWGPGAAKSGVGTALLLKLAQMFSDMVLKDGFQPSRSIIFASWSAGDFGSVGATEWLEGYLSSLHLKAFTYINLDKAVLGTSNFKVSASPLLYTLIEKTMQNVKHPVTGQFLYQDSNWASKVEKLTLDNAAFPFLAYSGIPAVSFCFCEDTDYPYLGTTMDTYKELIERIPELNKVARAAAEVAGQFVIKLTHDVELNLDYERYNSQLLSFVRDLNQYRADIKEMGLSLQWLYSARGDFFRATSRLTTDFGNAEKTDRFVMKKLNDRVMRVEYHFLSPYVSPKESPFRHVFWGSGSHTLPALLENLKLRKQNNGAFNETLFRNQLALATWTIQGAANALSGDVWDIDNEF

B1: huHF_Mutant1-dual (designed binder)
chain: MTTASTSQVRQNYHAASEAAINAQINLELYASYVYLSMSYYFDRDDVALKNFAKYFLHQSHEEREHAEKLMKLQNQRGGRIALADIQKPDCDDGGSYGSLYAFDIWESGLNAMECALHLEKNVNQSLLELHKLATDKNDPHLCDFIETHYLNEQVKAIKELGDHVTNLRKMGAPESGLAEYLFDKHTLGDSDNESMPSFITLASLSTWEGYFDF
In the case of B1, the Kd is reported as 182 nM.
